This assay addresses T1, KDR/flk-1 VEGF receptor of HUVEC cells (human, UniProt P35968 20-1356).
T1 construct: whole, on cells; Endogenous receptor on confluent HUVEC cells; also called the larger VEGF receptor of HUVEC cells
Nature of the assay: overview table, row 'Binding to Flk-1 and Flt-1 receptors'.

T1 sequence (P35968 20-1356): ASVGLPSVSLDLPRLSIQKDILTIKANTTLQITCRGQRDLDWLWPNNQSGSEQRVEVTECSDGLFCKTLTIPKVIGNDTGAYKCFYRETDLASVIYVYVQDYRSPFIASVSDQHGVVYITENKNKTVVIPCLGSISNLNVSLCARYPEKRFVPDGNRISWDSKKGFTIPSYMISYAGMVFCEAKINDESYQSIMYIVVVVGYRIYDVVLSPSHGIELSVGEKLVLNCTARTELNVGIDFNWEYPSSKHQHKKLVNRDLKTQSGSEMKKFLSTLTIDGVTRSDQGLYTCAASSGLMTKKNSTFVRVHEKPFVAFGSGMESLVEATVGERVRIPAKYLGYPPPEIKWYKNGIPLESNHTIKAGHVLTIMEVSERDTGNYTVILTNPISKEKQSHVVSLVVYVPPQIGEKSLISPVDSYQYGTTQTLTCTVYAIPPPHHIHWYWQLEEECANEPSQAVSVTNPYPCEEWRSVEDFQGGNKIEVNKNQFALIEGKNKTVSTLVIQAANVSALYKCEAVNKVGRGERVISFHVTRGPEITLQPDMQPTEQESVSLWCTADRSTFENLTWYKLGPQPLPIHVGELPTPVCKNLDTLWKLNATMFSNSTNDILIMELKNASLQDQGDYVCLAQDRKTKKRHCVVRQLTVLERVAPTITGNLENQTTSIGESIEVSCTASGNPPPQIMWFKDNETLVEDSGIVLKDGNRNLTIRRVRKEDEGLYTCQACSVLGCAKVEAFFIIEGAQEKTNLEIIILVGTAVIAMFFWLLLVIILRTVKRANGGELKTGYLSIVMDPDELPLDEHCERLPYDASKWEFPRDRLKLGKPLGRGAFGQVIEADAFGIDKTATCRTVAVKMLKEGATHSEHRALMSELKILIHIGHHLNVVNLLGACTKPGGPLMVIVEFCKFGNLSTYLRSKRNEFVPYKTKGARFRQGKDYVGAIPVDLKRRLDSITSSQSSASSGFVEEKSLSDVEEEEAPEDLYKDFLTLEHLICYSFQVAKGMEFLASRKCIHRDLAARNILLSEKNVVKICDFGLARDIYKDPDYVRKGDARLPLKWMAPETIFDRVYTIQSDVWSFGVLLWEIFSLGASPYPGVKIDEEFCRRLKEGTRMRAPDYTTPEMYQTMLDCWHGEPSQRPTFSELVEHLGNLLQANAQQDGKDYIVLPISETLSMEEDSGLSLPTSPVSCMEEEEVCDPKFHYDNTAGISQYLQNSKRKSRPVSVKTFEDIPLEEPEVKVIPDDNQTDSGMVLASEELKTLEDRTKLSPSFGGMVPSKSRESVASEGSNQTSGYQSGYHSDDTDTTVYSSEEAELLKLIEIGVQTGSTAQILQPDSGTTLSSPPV

B1: VEGF121 (ligand, human, UniProt P15692-9 27-147, looked up)
chain: APMAEGGGQNHHEVVKFMDVYQRSYCHPIETLVDIFQEYPDEIEYIFKPSCVPLMRCGGCCNDEGLECVPTEESNITMQIMRIKPHQGQHIGEMSFLQHNKCECRPKKDRARQEKCDKPRR
notes: mature
Turning to B1, the binding result is on record as “binds”.

B2: VEGF145 (recombinant, produced in Sf9 insect cells by baculovirus) (ligand)
chain: APMAEGGGQNHHEVVKFMDVYQRSYCHPIETLVDIFQEYPDEIEYIFKPSCVPLMRCGGCCNDEGLECVPTEESNITMQIMRIKPHQGQHIGEMSFLQHNKCECRPKKDRARQEKKSVRGKGKGQKRKRKKSRYKSWSVCDKPRR
notes: partially purified on heparin-sepharose; also called VEGF exons 1-5, 6a, 8
With B2, the binding result was “binds”.

(Values after patent EP1426444A2 (Technion Research & Development Co., Ltd., dated 2004).)
